Patent US10357554B2, “AMA-1 epitopes, antibodies, compositions, and methods of making and using the same” (THE UNITED STATES OF AMERICA, AS REPRESENTED BY THE …, dated 2019)
Substitutions are numbered along the chain they refer to. Like-named read-outs stand apart in the source and are kept apart here.

Legend:
[1] = target: AMA-1 on P. falciparum 3D7 strain parasites (Plasmodium falciparum)
[2] = target: AMA-1 on P. falciparum 3D7 strain parasites (Plasmodium falciparum); remark: listed apart in the source
[3] = target: T1, AMA-1 on P. falciparum 3D7 strain parasites (Plasmodium falciparum); test: cell-based or functional assay
T1 chain: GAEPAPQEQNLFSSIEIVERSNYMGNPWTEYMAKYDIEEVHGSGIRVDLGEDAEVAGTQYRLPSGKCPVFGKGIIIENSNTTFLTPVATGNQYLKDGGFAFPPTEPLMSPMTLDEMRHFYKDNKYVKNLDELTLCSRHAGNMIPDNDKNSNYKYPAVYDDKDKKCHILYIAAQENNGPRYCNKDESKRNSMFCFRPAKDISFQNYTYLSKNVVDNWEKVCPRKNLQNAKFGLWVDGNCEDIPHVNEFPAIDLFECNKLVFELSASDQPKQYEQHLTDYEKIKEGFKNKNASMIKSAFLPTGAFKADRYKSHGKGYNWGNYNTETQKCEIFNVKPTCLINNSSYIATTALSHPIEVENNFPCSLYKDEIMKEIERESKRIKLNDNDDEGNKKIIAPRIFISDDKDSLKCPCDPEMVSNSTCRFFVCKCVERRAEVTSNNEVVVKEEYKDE

[4] = target: T1, AMA-1 on P. falciparum 3D7 strain …; test: cell-based or functional assay
7 AMA-1 allelic proteins = test: dot blot against 7 AMA-1 allelic proteins

rat mAb 4G2dc1 (antibody)
GIA at 1 mg/ml against the 3D7 target strain: Inhibition [1]: 22%
IC30 concentration in GIA against 3D7 target parasites [2]: 1800 µg/mL

B1: Monoclonal 1B10 (antibody, V domains shown)
VH: EVQLQESGPGLVQPSQSLSITCTVSGFSLNMYGVHWVRQSPGKGLEWLGVIWSGGTTDYNAAFISRLSINRDNSKSQVFFKMNSLQTDDTAIYYCVRNNGYYVDAMDYWGQGTSVAVSS
VL: DVVMTQTPLSLPVSLGDQASISCRSSQSLVHSNGNTYLHWYLQRPGQSPKLLIYKVSNRFSGVPDRFSGSGSGTDFTLKISRVEAEDLGVYFCSQSTLGPTFGGGTKLEMQR
IC30 concentration in GIA against 3D7 target parasites [3]: 150 µg/mL
GIA at 1 mg/ml against the 3D7 target strain: Inhibition [4]: 65%
Strain reactivity (of 7 AMA-1 allelic proteins) (7 AMA-1 allelic proteins): 5

B2: Monoclonal 4E8 (antibody, V domains shown)
VH: B1 VH with G26D, N30I, T56S, N70S, R71K, T87A, V96A, A116T
VL: B1 VL with S32N, R44K, S61F, L98H, G99V, M110I, Q111K
IC30 concentration in GIA against 3D7 target parasites [3]: 150 µg/mL
GIA at 1 mg/ml against the 3D7 target strain: Inhibition [4]: 67%
Strain reactivity (of 7 AMA-1 allelic proteins) (7 AMA-1 allelic proteins): 6

B3: Monoclonal 4E11 (antibody, V domains shown)
VH: EVQLQESGPGLVRPSQSLSITCTVSGFSLPLYGVHWVRQSPGKGLEWLGVIWSGGSTDYNAAFVSRLSISKDNSKSQVFFEMNSLQADDTATYYCARNNGYYVDAMDYWGQGTSVTVSS
VL: B1 VL with R44K, Y54F, K79Q, V90F, L98H, G99V, M110I, Q111K
IC30 concentration in GIA against 3D7 target parasites [3]: 220 µg/mL
GIA at 1 mg/ml against the 3D7 target strain: Inhibition [4]: 62%
Strain reactivity (of 7 AMA-1 allelic proteins) (7 AMA-1 allelic proteins): 5

B4: Monoclonal 1E10 (antibody, V domains shown)
VH: EVQLQESGAELAKPGASVKLSCKASGYTFTNYLMHWIKQRPGQGLEWIGYINHGSGYTNYNQKFIDRATLTADKSSSTAYMQLRSLTYEDSAVYYCVHGYFDVWGTGTTVTVSS
VL: QIVLTQSPTIMSASPGEKVTMTCSASSSVTYMHWYQQKPGTSPKRWIYDTSKLASGVPARFSGSGSGTSYSLTISSMEAEDAATYYCHQRSSYPTFGGGTKLEIKR
IC30 concentration in GIA against 3D7 target parasites [3]: 1900 µg/mL
GIA at 1 mg/ml against the 3D7 target strain: Inhibition [4]: 20%
Strain reactivity (of 7 AMA-1 allelic proteins) (7 AMA-1 allelic proteins): 7
